The record followed here is patent US10919943B2, “Mutant proteins enabling agrochemical control of plant gene expression” (The Regents of the University of California, priority 2016, dated 2021).

This assay has as its system HAB1. In words: Yeast two hybrid of pBD-PYR1 site saturation mutants with pACT-HAB1 on 10 μM ABA, β-galactosidase staining. It counts as cell-based, Arabidopsis. Also on record: key: x: Mutations in PYR1 that disrupt ABA-induced binding to PYR1 to HAB1. Conditions: S. cerevisiae Y190, 10 μM ABA; dead = lack of visible staining in comparison to wild type control. From the text: To systematically identify mutations in PYR1 that disrupt its binding to HAB1, we utilized a collection of saturating mutations that contain all possible single amino acid substitutions in 24 conserved interface residues involved in binding HAB1, which was previously constructed for the purpose of engineering constitutively active ABA receptor variants (Mosquna et al., 2011). The interface residues previously mutagenized in this collection are the following: H60, F61, I62, K63, I84, S85, G86, L87, P88, A89, H115, R116, L117, P148, G150, N151, D154, D155, T156, M158, F159, T162, L166, K170. This set was made by mutagenizing a pBD-PYR1 template that encodes a GAL4-DNA binding domain fusion to PYR1, which can be used to assess receptor-HAB1 binding in S. cerevisiae strains co-transformed with pACT-HAB1, which expresses a GAL4 activation domain fusion to HAB1. Mutant pBD-PYR1 clones from the collection are maintained in S. cerevisiae strain Y190 co-transformed with pACT-HAB1. The test strains were spotted onto agar plates containing synthetic dextrose dropout media lacking leucine and tryptophan [SD (-Leu, -Trp)] medium supplemented with 10 μM ABA. After incubating the test plates at 30° C. for two days, colonies were chloroform lysed and stained to reveal […] expression levels and “dead” mutants were defined by lack of visible staining in comparison to a wild type control. This effort defined 237 mutations that disrupt ABA-induced binding of PYR1 to HAB1 (Table 1). Premade yeast drop out supplements (Clontech) were utilized in this and other examples for media preparation, amino acids and other standard chemicals were purchased from Sigma-Aldrich (USA). The naturally occurring (+)-ABA isomer was used in all experiments and purchased from Biosynth Ag (Switzerland).

Changes are numbered by the printed parent chain. Names and notes keep the numbering of the source.

B1: G86A: PYR1 mutant (protein, UniProt O49686 1-191, looked up, variant G86A)
Abscisic acid receptor PYR1: MPSELTPEERSELKNSIAEFHTYQLDPGSCSSLHAQRIHAPPELVWSIVRRFDKPQTYKHFIKSCSVEQNFEMRVGCTRDVIVISALPANTSTERLDILDDERRVTGFSIIGGEHRLTNYKSVTTVHRFEKENRIWTVVLESYVVDMPEGNSEDDTRMFADTVVKLNLQKLATVAEAMARNSGDGSGSQVT
Regarding B1, the “Mutations in PYR1 that disrupt ABA-induced binding to PYR1 to HAB1” value (“Mutations” below) was “x”.

B2: G86L: PYR1 mutant (protein, UniProt O49686 1-191, looked up, variant G86L)
Abscisic acid receptor PYR1: B1 Abscisic acid receptor PYR1 with A86L
Regarding B2, the “Mutations” value was “x”.

B3: G86H: PYR1 mutant (protein, UniProt O49686 1-191, looked up, variant G86H)
Abscisic acid receptor PYR1: B1 Abscisic acid receptor PYR1 with A86H
As for B3, the “Mutations” value is on record as “x”.

B4: G86Y: PYR1 mutant (protein, UniProt O49686 1-191, looked up, variant G86Y)
Abscisic acid receptor PYR1: B1 Abscisic acid receptor PYR1 with A86Y
With B4, the “Mutations” value was “x”.

B5: L87W: PYR1 mutant (protein, UniProt O49686 1-191, looked up, variant L87W)
Abscisic acid receptor PYR1: B1 Abscisic acid receptor PYR1 with A86G, L87W
Turning to B5, the “Mutations” value is “x”.

B6: G86M: PYR1 mutant (protein, UniProt O49686 1-191, looked up, variant G86M)
Abscisic acid receptor PYR1: B1 Abscisic acid receptor PYR1 with A86M
On to B6, for which the “Mutations” value was “x”.

B7: G86S: PYR1 mutant (protein, UniProt O49686 1-191, looked up, variant G86S)
Abscisic acid receptor PYR1: B1 Abscisic acid receptor PYR1 with A86S
On to B7, for which the “Mutations” value is on record as “x”.

B8: L87Y: PYR1 mutant (protein, UniProt O49686 1-191, looked up, variant L87Y)
Abscisic acid receptor PYR1: B1 Abscisic acid receptor PYR1 with A86G, L87Y
Consider B8, for which the “Mutations” value was “x”.

B9: G86K: PYR1 mutant (protein, UniProt O49686 1-191, looked up, variant G86K)
Abscisic acid receptor PYR1: B1 Abscisic acid receptor PYR1 with A86K
With B9, the “Mutations” value was “x”.

B10: P88N: PYR1 mutant (protein, UniProt O49686 1-191, looked up, variant P88N)
Abscisic acid receptor PYR1: B1 Abscisic acid receptor PYR1 with A86G, P88N
As to B10, the “Mutations” value is “x”.

B11: L87A: PYR1 mutant (protein, UniProt O49686 1-191, looked up, variant L87A)
Abscisic acid receptor PYR1: B1 Abscisic acid receptor PYR1 with A86G, L87A
B11: the “Mutations” value is on record as “x”.

B12: G86C: PYR1 mutant (protein, UniProt O49686 1-191, looked up, variant G86C)
Abscisic acid receptor PYR1: B1 Abscisic acid receptor PYR1 with A86C
With B12, the “Mutations” value is listed as “x”.

B13: G86E: PYR1 mutant (protein, UniProt O49686 1-191, looked up, variant G86E)
Abscisic acid receptor PYR1: B1 Abscisic acid receptor PYR1 with A86E
For the molecule B13, the “Mutations” value is “x”.

B14: L87G: PYR1 mutant (protein, UniProt O49686 1-191, looked up, variant L87G)
Abscisic acid receptor PYR1: B1 Abscisic acid receptor PYR1 with A86G, L87G
In the case of B14, the “Mutations” value is listed as “x”.

B15: L87K: PYR1 mutant (protein, UniProt O49686 1-191, looked up, variant L87K)
Abscisic acid receptor PYR1: B1 Abscisic acid receptor PYR1 with A86G, L87K
Take B15: the “Mutations” value is “x”.

B16: G86W: PYR1 mutant (protein, UniProt O49686 1-191, looked up, variant G86W)
Abscisic acid receptor PYR1: B1 Abscisic acid receptor PYR1 with A86W
Turning to B16, the “Mutations” value was “x”.

B17: L87R: PYR1 mutant (protein, UniProt O49686 1-191, looked up, variant L87R)
Abscisic acid receptor PYR1: B1 Abscisic acid receptor PYR1 with A86G, L87R
In the case of B17, the “Mutations” value was “x”.

B18: P88R: PYR1 mutant (protein, UniProt O49686 1-191, looked up, variant P88R)
Abscisic acid receptor PYR1: B1 Abscisic acid receptor PYR1 with A86G, P88R
As to B18, the “Mutations” value is reported as “x”.

B19: L87H: PYR1 mutant (protein, UniProt O49686 1-191, looked up, variant L87H)
Abscisic acid receptor PYR1: B1 Abscisic acid receptor PYR1 with A86G, L87H
Consider B19, for which the “Mutations” value is recorded as “x”.

B20: G86D: PYR1 mutant (protein, UniProt O49686 1-191, looked up, variant G86D)
Abscisic acid receptor PYR1: B1 Abscisic acid receptor PYR1 with A86D
Take B20: the “Mutations” value is “x”.

B21: L87C: PYR1 mutant (protein, UniProt O49686 1-191, looked up, variant L87C)
Abscisic acid receptor PYR1: B1 Abscisic acid receptor PYR1 with A86G, L87C
Take B21: the “Mutations” value was “x”.

B22: G86Q: PYR1 mutant (protein, UniProt O49686 1-191, looked up, variant G86Q)
Abscisic acid receptor PYR1: B1 Abscisic acid receptor PYR1 with A86Q
As for B22, the “Mutations” value is listed as “x”.

B23: L87E: PYR1 mutant (protein, UniProt O49686 1-191, looked up, variant L87E)
Abscisic acid receptor PYR1: B1 Abscisic acid receptor PYR1 with A86G, L87E
B23: the “Mutations” value is “x”.

B24: L87S: PYR1 mutant (protein, UniProt O49686 1-191, looked up, variant L87S)
Abscisic acid receptor PYR1: B1 Abscisic acid receptor PYR1 with A86G, L87S
For the molecule B24, the “Mutations” value is recorded as “x”.

B25: P88L: PYR1 mutant (protein, UniProt O49686 1-191, looked up, variant P88L)
Abscisic acid receptor PYR1: B1 Abscisic acid receptor PYR1 with A86G, P88L
For the molecule B25, the “Mutations” value is on record as “x”.

B26: P88Q: PYR1 mutant (protein, UniProt O49686 1-191, looked up, variant P88Q)
Abscisic acid receptor PYR1: B1 Abscisic acid receptor PYR1 with A86G, P88Q
As to B26, the “Mutations” value is given as “x”.

B27: G86R: PYR1 mutant (protein, UniProt O49686 1-191, looked up, variant G86R)
Abscisic acid receptor PYR1: B1 Abscisic acid receptor PYR1 with A86R
Take B27: the “Mutations” value is “x”.

B28: G86I: PYR1 mutant (protein, UniProt O49686 1-191, looked up, variant G86I)
Abscisic acid receptor PYR1: B1 Abscisic acid receptor PYR1 with A86I
With B28, the “Mutations” value is “x”.

B29: L87N: PYR1 mutant (protein, UniProt O49686 1-191, looked up, variant L87N)
Abscisic acid receptor PYR1: B1 Abscisic acid receptor PYR1 with A86G, L87N
As to B29, the “Mutations” value is reported as “x”.

B30: G86V: PYR1 mutant (protein, UniProt O49686 1-191, looked up, variant G86V)
Abscisic acid receptor PYR1: B1 Abscisic acid receptor PYR1 with A86V
Consider B30, for which the “Mutations” value is reported as “x”.

B31: G86P: PYR1 mutant (protein, UniProt O49686 1-191, looked up, variant G86P)
Abscisic acid receptor PYR1: B1 Abscisic acid receptor PYR1 with A86P
For B31, the “Mutations” value was “x”.

B32: G86T: PYR1 mutant (protein, UniProt O49686 1-191, looked up, variant G86T)
Abscisic acid receptor PYR1: B1 Abscisic acid receptor PYR1 with A86T
With B32, the “Mutations” value was “x”.

B33: L87T: PYR1 mutant (protein, UniProt O49686 1-191, looked up, variant L87T)
Abscisic acid receptor PYR1: B1 Abscisic acid receptor PYR1 with A86G, L87T
As to B33, the “Mutations” value is listed as “x”.

B34: P88M: PYR1 mutant (protein, UniProt O49686 1-191, looked up, variant P88M)
Abscisic acid receptor PYR1: B1 Abscisic acid receptor PYR1 with A86G, P88M
B34: the “Mutations” value is reported as “x”.

B35: L87Q: PYR1 mutant (protein, UniProt O49686 1-191, looked up, variant L87Q)
Abscisic acid receptor PYR1: B1 Abscisic acid receptor PYR1 with A86G, L87Q
Take B35: the “Mutations” value is “x”.

B36: L87D: PYR1 mutant (protein, UniProt O49686 1-191, looked up, variant L87D)
Abscisic acid receptor PYR1: B1 Abscisic acid receptor PYR1 with A86G, L87D
In the case of B36, the “Mutations” value is given as “x”.

B37: G86F: PYR1 mutant (protein, UniProt O49686 1-191, looked up, variant G86F)
Abscisic acid receptor PYR1: B1 Abscisic acid receptor PYR1 with A86F
For the molecule B37, the “Mutations” value is “x”.

B38: G86N: PYR1 mutant (protein, UniProt O49686 1-191, looked up, variant G86N)
Abscisic acid receptor PYR1: B1 Abscisic acid receptor PYR1 with A86N
As for B38, the “Mutations” value is listed as “x”.
